T1: GRIP1_4, Q9Y3R0
T1 sequence (Q9Y3R0 467-571, limits assumed, looked up): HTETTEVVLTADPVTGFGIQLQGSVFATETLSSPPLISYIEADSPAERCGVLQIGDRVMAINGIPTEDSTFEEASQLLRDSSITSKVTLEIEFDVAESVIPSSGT

T2: MPDZ_12, O75970
T2 sequence (O75970 1857-1958, limits assumed, looked up): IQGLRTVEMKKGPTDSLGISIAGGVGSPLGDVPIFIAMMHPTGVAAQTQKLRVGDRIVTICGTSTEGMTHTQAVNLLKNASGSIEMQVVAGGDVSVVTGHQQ

T3: RHPN1, Q8TCX5
T3 sequence (Q8TCX5 508-602, limits assumed, looked up): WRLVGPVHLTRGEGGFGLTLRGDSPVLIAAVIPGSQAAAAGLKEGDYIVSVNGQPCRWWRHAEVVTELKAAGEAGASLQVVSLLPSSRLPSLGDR

T4: CARD11, Q9BXL7
T4 sequence (Q9BXL7 662-765, limits assumed, looked up): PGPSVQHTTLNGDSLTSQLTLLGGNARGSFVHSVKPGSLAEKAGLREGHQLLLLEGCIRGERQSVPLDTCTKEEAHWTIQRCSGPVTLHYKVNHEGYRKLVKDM

T5: SHANK1, Q9Y566
T5 sequence (Q9Y566 658-767, limits assumed, looked up): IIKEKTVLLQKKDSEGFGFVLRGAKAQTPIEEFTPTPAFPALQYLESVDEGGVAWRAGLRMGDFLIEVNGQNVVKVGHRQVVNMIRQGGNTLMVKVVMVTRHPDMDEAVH

T6: PARD3B_1, Q8TEW8
T6 sequence (Q8TEW8 196-299, limits assumed, looked up): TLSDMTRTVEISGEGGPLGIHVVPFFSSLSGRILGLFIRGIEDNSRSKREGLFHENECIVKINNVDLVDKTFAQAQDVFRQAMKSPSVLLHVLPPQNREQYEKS

T7: SIPA1L2, Q9P2F8
T7 sequence (Q9P2F8 945-1036, limits assumed, looked up): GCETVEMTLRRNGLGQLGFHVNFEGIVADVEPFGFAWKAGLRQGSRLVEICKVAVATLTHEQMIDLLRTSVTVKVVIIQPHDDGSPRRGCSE

T8: LIN7C, Q9NUP9
T8 sequence (Q9NUP9 88-185, limits assumed, looked up): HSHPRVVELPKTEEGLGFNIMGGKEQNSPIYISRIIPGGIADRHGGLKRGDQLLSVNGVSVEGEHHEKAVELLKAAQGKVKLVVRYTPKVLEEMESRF

B1: CSPG4, Q6UVK1 (peptide)
chain: PALKNGQYWV
B2: DFNB31, Q9P202 (peptide)
chain: FLVTEFNVML
B3: LPAR1, Q92633 (peptide)
chain: GVHSNDHSVV
B4: SLC17A1, Q14916 (peptide)
chain: WAKEKQHTRL
B5: KCNA6, P17658 (peptide)
chain: YAEKRMLTEV

Target: Inadl_1, Q8NI35
Sequence (Q8NI35 113-229): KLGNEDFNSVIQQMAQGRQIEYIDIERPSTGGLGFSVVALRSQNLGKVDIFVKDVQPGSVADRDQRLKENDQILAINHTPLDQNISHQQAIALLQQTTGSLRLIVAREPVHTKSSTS
Experiment: holdup assay
Set-up: key: below the threshold = too weak to quantify, mostly under pKd 3.1 to 4
Details: plain residues with an end cap or a label only (N-terminal biotin on a linker: ado-ado)

pKd | Binder
4.09 | B1
below the threshold | B2
below the threshold | B3
below the threshold | B4
below the threshold | B5

Target: SCRIB_3, Q14160
Sequence (Q14160 999-1103): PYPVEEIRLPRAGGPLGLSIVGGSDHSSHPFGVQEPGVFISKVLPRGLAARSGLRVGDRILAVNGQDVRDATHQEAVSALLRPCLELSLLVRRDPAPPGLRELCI
Experiment: holdup assay
Set-up: key: below the threshold = too weak to quantify, mostly under pKd 3.1 to 4
Details: plain residues with an end cap or a label only (N-terminal biotin on a linker: ado-ado)

pKd | Binder
3.58 | B1
4.12 | B2
below the threshold | B3
4.11 | B4
3.52 | B5

Target: SNX27, Q96L92
Experiment: holdup assay
Set-up: key: below the threshold = too weak to quantify, mostly under pKd 3.1 to 4
Details: plain residues with an end cap or a label only (N-terminal biotin on a linker: ado-ado)

pKd | Binder
3.77 | B1
4.4 | B2
below the threshold | B3
4.28 | B4
below the threshold | B5

Target: GRID2IP_2, A4D2P6
Sequence (A4D2P6 272-370): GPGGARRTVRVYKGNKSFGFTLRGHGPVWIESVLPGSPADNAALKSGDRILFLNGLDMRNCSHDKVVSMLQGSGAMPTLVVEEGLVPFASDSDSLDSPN
Experiment: holdup assay
Set-up: key: below the threshold = too weak to quantify, mostly under pKd 3.1 to 4
Details: plain residues with an end cap or a label only (N-terminal biotin on a linker: ado-ado)

pKd | Binder
3.75 | B1
below the threshold | B2
3.96 | B3
4.25 | B4
3.72 | B5

Target: MAGI2_6, Q86UL8
Sequence (Q86UL8 1141-1229): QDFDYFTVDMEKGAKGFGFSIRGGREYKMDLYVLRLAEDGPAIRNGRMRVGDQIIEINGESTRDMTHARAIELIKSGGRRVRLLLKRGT
Experiment: holdup assay
Set-up: key: below the threshold = too weak to quantify, mostly under pKd 3.1 to 4
Details: plain residues with an end cap or a label only (N-terminal biotin on a linker: ado-ado)

pKd | Binder
3.67 | B1
4.78 | B2
below the threshold | B3
below the threshold | B4
below the threshold | B5

Target: NHERF2_2, Q15599
Sequence (Q15599 142-238): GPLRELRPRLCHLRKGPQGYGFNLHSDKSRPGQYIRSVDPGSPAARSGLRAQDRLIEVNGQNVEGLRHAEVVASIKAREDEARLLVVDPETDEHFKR
Experiment: holdup assay
Set-up: key: below the threshold = too weak to quantify, mostly under pKd 3.1 to 4
Details: plain residues with an end cap or a label only (N-terminal biotin on a linker: ado-ado)

pKd | Binder
below the threshold | B1
4.04 | B2
below the threshold | B3
4.39 | B4
below the threshold | B5

Target: Inadl_6, Q8NI35
Sequence (Q8NI35 1058-1167): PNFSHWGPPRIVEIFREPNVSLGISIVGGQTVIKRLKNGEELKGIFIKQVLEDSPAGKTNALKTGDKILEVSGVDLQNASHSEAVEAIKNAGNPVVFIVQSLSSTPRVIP
Experiment: holdup assay
Set-up: key: below the threshold = too weak to quantify, mostly under pKd 3.1 to 4
Details: plain residues with an end cap or a label only (N-terminal biotin on a linker: ado-ado)

pKd | Binder
below the threshold | B1
below the threshold | B2
below the threshold | B3
below the threshold | B4
below the threshold | B5

Target: T1, GRIP1_4, Q9Y3R0
Experiment: holdup assay
Set-up: key: below the threshold = too weak to quantify, mostly under pKd 3.1 to 4
Details: plain residues with an end cap or a label only (N-terminal biotin on a linker: ado-ado)

pKd | Binder
below the threshold | B1
below the threshold | B2
below the threshold | B3
below the threshold | B4
below the threshold | B5

Target: LDB3, O75112
Sequence (O75112 1-94): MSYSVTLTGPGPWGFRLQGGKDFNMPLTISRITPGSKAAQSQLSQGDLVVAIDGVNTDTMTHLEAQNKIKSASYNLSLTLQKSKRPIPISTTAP
Experiment: holdup assay
Set-up: key: below the threshold = too weak to quantify, mostly under pKd 3.1 to 4
Details: plain residues with an end cap or a label only (N-terminal biotin on a linker: ado-ado)

pKd | Binder
below the threshold | B1
3.88 | B2
below the threshold | B3
below the threshold | B4
below the threshold | B5

Target: DLG1_3, Q12959
Sequence (Q12959 457-571): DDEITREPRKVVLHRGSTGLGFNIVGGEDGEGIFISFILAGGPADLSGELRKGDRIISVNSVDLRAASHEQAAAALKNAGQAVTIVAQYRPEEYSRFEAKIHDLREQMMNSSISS
Experiment: holdup assay
Set-up: key: below the threshold = too weak to quantify, mostly under pKd 3.1 to 4
Details: plain residues with an end cap or a label only (N-terminal biotin on a linker: ado-ado)

pKd | Binder
below the threshold | B1
below the threshold | B2
below the threshold | B3
below the threshold | B4
below the threshold | B5

Target: T2, MPDZ_12, O75970
Experiment: holdup assay
Set-up: key: below the threshold = too weak to quantify, mostly under pKd 3.1 to 4
Details: plain residues with an end cap or a label only (N-terminal biotin on a linker: ado-ado)

pKd | Binder
3.61 | B1
below the threshold | B2
below the threshold | B3
below the threshold | B4
3.55 | B5

Target: GRIP2_4, Q9C0E4
Sequence (Q9C0E4 446-548): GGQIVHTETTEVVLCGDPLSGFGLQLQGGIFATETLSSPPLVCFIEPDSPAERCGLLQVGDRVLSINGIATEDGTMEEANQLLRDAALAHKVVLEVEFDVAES
Experiment: holdup assay
Set-up: key: below the threshold = too weak to quantify, mostly under pKd 3.1 to 4
Details: plain residues with an end cap or a label only (N-terminal biotin on a linker: ado-ado)

pKd | Binder
below the threshold | B1
below the threshold | B2
below the threshold | B3
below the threshold | B4
below the threshold | B5

Target: T3, RHPN1, Q8TCX5
Experiment: holdup assay
Set-up: key: below the threshold = too weak to quantify, mostly under pKd 3.1 to 4
Details: plain residues with an end cap or a label only (N-terminal biotin on a linker: ado-ado)

pKd | Binder
below the threshold | B1
below the threshold | B2
3.78 | B3
3.97 | B4
3.8 | B5

Target: T4, CARD11, Q9BXL7
Experiment: holdup assay
Set-up: key: below the threshold = too weak to quantify, mostly under pKd 3.1 to 4
Details: plain residues with an end cap or a label only (N-terminal biotin on a linker: ado-ado)

pKd | Binder
below the threshold | B1
below the threshold | B2
below the threshold | B3
below the threshold | B4
below the threshold | B5

Target: DLG4_1, P78352
Sequence (P78352 62-152): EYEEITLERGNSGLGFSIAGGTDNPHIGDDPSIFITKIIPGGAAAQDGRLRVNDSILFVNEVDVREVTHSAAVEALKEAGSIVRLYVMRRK
Experiment: holdup assay
Set-up: key: below the threshold = too weak to quantify, mostly under pKd 3.1 to 4
Details: plain residues with an end cap or a label only (N-terminal biotin on a linker: ado-ado)

pKd | Binder
below the threshold | B1
below the threshold | B2
below the threshold | B3
3.82 | B4
3.65 | B5

Target: T5, SHANK1, Q9Y566
Experiment: holdup assay
Set-up: key: below the threshold = too weak to quantify, mostly under pKd 3.1 to 4
Details: plain residues with an end cap or a label only (N-terminal biotin on a linker: ado-ado)

pKd | Binder
below the threshold | B1
3.84 | B2
below the threshold | B3
4.91 | B4
below the threshold | B5

Target: NHERF4_1, Q86UT5-2
Sequence (Q86UT5 other isoform, or with tags, fused parts or gaps): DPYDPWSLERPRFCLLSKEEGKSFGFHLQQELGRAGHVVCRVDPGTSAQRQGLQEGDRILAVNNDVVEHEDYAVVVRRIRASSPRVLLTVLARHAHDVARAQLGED
Experiment: holdup assay
Set-up: key: below the threshold = too weak to quantify, mostly under pKd 3.1 to 4
Details: plain residues with an end cap or a label only (N-terminal biotin on a linker: ado-ado)

pKd | Binder
3.5 | B1
3.9 | B2
below the threshold | B3
4.07 | B4
below the threshold | B5

Target: T6, PARD3B_1, Q8TEW8
Experiment: holdup assay
Set-up: key: below the threshold = too weak to quantify, mostly under pKd 3.1 to 4
Details: plain residues with an end cap or a label only (N-terminal biotin on a linker: ado-ado)

pKd | Binder
3.71 | B1
5.21 | B2
below the threshold | B3
4.31 | B4
below the threshold | B5

Target: MAGI2_2, Q86UL8
Sequence (Q86UL8 410-522): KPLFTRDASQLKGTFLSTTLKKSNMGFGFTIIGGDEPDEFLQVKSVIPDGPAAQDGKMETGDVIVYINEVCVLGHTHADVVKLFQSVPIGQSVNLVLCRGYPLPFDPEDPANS
Experiment: holdup assay
Set-up: key: below the threshold = too weak to quantify, mostly under pKd 3.1 to 4
Details: plain residues with an end cap or a label only (N-terminal biotin on a linker: ado-ado)

pKd | Binder
below the threshold | B1
below the threshold | B2
3.69 | B3
4.71 | B4
4.33 | B5

Target: HTRA2, O43464
Sequence (O43464 355-458): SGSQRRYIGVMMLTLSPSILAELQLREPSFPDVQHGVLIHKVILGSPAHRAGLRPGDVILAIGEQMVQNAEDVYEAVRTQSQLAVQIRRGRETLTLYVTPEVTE
Experiment: holdup assay
Set-up: key: below the threshold = too weak to quantify, mostly under pKd 3.1 to 4
Details: plain residues with an end cap or a label only (N-terminal biotin on a linker: ado-ado)

pKd | Binder
4.72 | B1
below the threshold | B2
below the threshold | B3
below the threshold | B4
below the threshold | B5

Target: FRMPD2_2, Q68DX3
Sequence (Q68DX3 944-1038): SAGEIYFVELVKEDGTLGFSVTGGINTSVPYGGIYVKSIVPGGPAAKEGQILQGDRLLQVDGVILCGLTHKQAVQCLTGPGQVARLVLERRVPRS
Experiment: holdup assay
Set-up: key: below the threshold = too weak to quantify, mostly under pKd 3.1 to 4
Details: plain residues with an end cap or a label only (N-terminal biotin on a linker: ado-ado)

pKd | Binder
below the threshold | B1
below the threshold | B2
below the threshold | B3
below the threshold | B4
below the threshold | B5

Target: LNX1_3, Q8TBB1
Sequence (Q8TBB1 500-596): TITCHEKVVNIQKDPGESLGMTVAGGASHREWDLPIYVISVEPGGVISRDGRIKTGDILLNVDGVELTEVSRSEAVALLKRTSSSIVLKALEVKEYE
Experiment: holdup assay
Set-up: key: below the threshold = too weak to quantify, mostly under pKd 3.1 to 4
Details: plain residues with an end cap or a label only (N-terminal biotin on a linker: ado-ado)

pKd | Binder
below the threshold | B1
below the threshold | B2
below the threshold | B3
below the threshold | B4
below the threshold | B5

Target: T7, SIPA1L2, Q9P2F8
Experiment: holdup assay
Set-up: key: below the threshold = too weak to quantify, mostly under pKd 3.1 to 4
Details: plain residues with an end cap or a label only (N-terminal biotin on a linker: ado-ado)

pKd | Binder
below the threshold | B1
below the threshold | B2
below the threshold | B3
below the threshold | B4
below the threshold | B5

Target: NHERF4_4, Q86UT5
Sequence (Q86UT5 464-550): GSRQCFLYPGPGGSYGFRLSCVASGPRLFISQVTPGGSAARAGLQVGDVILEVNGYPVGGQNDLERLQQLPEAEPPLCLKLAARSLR
Experiment: holdup assay
Set-up: key: below the threshold = too weak to quantify, mostly under pKd 3.1 to 4
Details: plain residues with an end cap or a label only (N-terminal biotin on a linker: ado-ado)

pKd | Binder
4.05 | B1
4.84 | B2
below the threshold | B3
below the threshold | B4
below the threshold | B5

Target: GORASP1, Q9BQQ3
Sequence (Q9BQQ3 1-208): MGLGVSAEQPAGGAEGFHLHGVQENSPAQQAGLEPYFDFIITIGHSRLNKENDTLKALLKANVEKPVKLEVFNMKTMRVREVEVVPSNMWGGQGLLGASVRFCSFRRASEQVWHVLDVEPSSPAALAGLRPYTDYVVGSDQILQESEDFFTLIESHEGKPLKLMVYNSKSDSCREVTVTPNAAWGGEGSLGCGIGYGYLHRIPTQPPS
Experiment: holdup assay
Set-up: key: below the threshold = too weak to quantify, mostly under pKd 3.1 to 4
Details: plain residues with an end cap or a label only (N-terminal biotin on a linker: ado-ado)

pKd | Binder
5.29 | B1
4.32 | B2
3.48 | B3
below the threshold | B4
below the threshold | B5

Target: PTPN3, P26045
Sequence (P26045 505-587): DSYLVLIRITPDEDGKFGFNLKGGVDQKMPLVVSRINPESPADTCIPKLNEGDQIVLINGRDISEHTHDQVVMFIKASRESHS
Experiment: holdup assay
Set-up: key: below the threshold = too weak to quantify, mostly under pKd 3.1 to 4
Details: plain residues with an end cap or a label only (N-terminal biotin on a linker: ado-ado)

pKd | Binder
4.1 | B1
3.89 | B2
below the threshold | B3
3.85 | B4
4.32 | B5

Target: T8, LIN7C, Q9NUP9
Experiment: holdup assay
Set-up: key: below the threshold = too weak to quantify, mostly under pKd 3.1 to 4
Details: plain residues with an end cap or a label only (N-terminal biotin on a linker: ado-ado)

pKd | Binder
4.15 | B1
below the threshold | B2
below the threshold | B3
below the threshold | B4
3.52 | B5

Target: Inadl_2, Q8NI35
Sequence (Q8NI35 238-335): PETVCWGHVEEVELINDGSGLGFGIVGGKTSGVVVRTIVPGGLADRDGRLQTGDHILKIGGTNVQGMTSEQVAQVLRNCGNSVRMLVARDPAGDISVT
Experiment: holdup assay
Set-up: key: below the threshold = too weak to quantify, mostly under pKd 3.1 to 4
Details: plain residues with an end cap or a label only (N-terminal biotin on a linker: ado-ado)

pKd | Binder
4.38 | B1
below the threshold | B2
below the threshold | B3
below the threshold | B4
below the threshold | B5

Target: FRMPD4, Q14CM0
Sequence (Q14CM0 67-160): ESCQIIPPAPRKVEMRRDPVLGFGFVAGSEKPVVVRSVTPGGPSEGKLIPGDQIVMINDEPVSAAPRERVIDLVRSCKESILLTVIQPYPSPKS
Experiment: holdup assay
Set-up: key: below the threshold = too weak to quantify, mostly under pKd 3.1 to 4
Details: plain residues with an end cap or a label only (N-terminal biotin on a linker: ado-ado)

pKd | Binder
3.68 | B1
4.9 | B2
below the threshold | B3
3.97 | B4
below the threshold | B5

— publication PMC9482650, “Quantitative fragmentomics allow affinity mapping of interactomes” (Nature Communications, 2022)
